From the RNAGym collection of RNA variant scans (doi:10.7554/elife.80360) come the findings set out here.

B1: CPEB3 Ribozyme (parent)
chain: GGGGGCCACAGCAGAAGCGUUCACGUCGCGGCCCCUGUCAGAUUCUGGUGAAUCUGCGAAUUCUGCUGU

The data set covers variants of B1. Description: self-cleavage, relative activity (ratio to wild type); higher = more cleavage; co-transcriptional.
Regarding G47A C54G, the self-cleavage worked out at 0.979.

As for G47A C54A, the self-cleavage came to 0.961.

C45G U62G: the self-cleavage came to 0.81.

Turning to C45G U62C, the self-cleavage came out at 0.798.

U46A A51U: the self-cleavage stood at 1.01.

For the variant U46A A51C, the self-cleavage was 0.99.

Consider U46C C54G, for which the self-cleavage is 0.891.

As for U46C C54A, the self-cleavage came out at 0.772.

Regarding C45A G48C, the self-cleavage was determined as 1.01.

For C45A G48U, the self-cleavage is 0.976.

Consider U46C G47A, for which the self-cleavage came out at 0.682.

Turning to U46C G47C, the self-cleavage was 1.02.

U44G G47A: the self-cleavage is 0.954.

As to U44G G47C, the self-cleavage worked out at 0.962.

Consider U44G G47U, for which the self-cleavage was 1.01.

Regarding C45U C63A, the self-cleavage is 0.838.

Consider C45A U64C, for which the self-cleavage is 0.842.

As for C45A U64G, the self-cleavage was found to be 0.809.

For the variant C45A U64A, the self-cleavage was found to be 0.821.

Regarding U44G U53C, the self-cleavage was 0.749.

With U44G U53A, the self-cleavage was 0.755.

For the variant C45U G50A, the self-cleavage was 1.01.

With C45U G50C, the self-cleavage is 1.02.

As to G47A C63A, the self-cleavage was 0.898.

As for U46G A59G, the self-cleavage came out at 0.965.

Regarding U46G A59U, the self-cleavage turned out to be 0.842.

Turning to C45U U61A, the self-cleavage worked out at 0.919.

As to C45U U61C, the self-cleavage was determined as 0.887.

Regarding C45U C57G, the self-cleavage is 0.319.

For the variant C45U C57A, the self-cleavage turned out to be 0.32.

Take C45U A60G: the self-cleavage was found to be 0.9.

For the variant C45U A60U, the self-cleavage came out at 0.469.

Regarding C45U A60C, the self-cleavage was determined as 0.33.

With C45U G56U, the self-cleavage amounted to 0.897.

Consider C45U G56C, for which the self-cleavage is 0.694.

As for U44G U69C, the self-cleavage was 1.04.

For U44G U69A, the self-cleavage was 1.01.

U44G U69G: the self-cleavage was found to be 1.04.

On to C45A G50A, for which the self-cleavage is 1.02.

On to U46G U55G, for which the self-cleavage amounted to 0.83.

For the variant U46G U55A, the self-cleavage is 0.899.

Consider U46G U55C, for which the self-cleavage came to 0.936.

As to C45G A51U, the self-cleavage was 1.03.

For C45G A51C, the self-cleavage is 1.01.

With C45G A51G, the self-cleavage worked out at 1.02.

Turning to C45A U55G, the self-cleavage was found to be 0.475.

For C45A U55A, the self-cleavage is 0.534.

In the case of U46C A51G, the self-cleavage came out at 0.988.

In the case of U46C A51U, the self-cleavage is 0.994.

U46A A59C: the self-cleavage was 0.802.

As for U46A A59G, the self-cleavage was found to be 1.02.

Regarding U46A U49A, the self-cleavage came out at 1.02.

For G47A A60U, the self-cleavage worked out at 0.475.

For G47A C57A, the self-cleavage was determined as 0.347.

In the case of G47A C57U, the self-cleavage is 0.321.

As for U44G G65A, the self-cleavage was determined as 0.812.

As to U44G G65U, the self-cleavage is 0.674.

As to U44G G65C, the self-cleavage was found to be 0.445.

U46C U49A: the self-cleavage came to 0.996.

As to U46C U49C, the self-cleavage was 0.913.

For the variant U46A U67G, the self-cleavage is 1.03.

In the case of U46A U67C, the self-cleavage came out at 1.01.

For C45G U67A, the self-cleavage was found to be 0.962.

For C45G U67C, the self-cleavage is 0.917.

In the case of C45G U69C, the self-cleavage worked out at 1.05.

Turning to C45G U69A, the self-cleavage came to 1.01.

For C45G U49C, the self-cleavage is 0.915.

In the case of C45G U49G, the self-cleavage came to 0.947.

Turning to U46A A60C, the self-cleavage came out at 0.346.

U46A A60G: the self-cleavage came to 0.91.

Regarding C45U U67C, the self-cleavage amounted to 0.955.

For U46C G58A, the self-cleavage amounted to 0.979.

In the case of C45A G58C, the self-cleavage turned out to be 1.02.

In the case of C45A G58A, the self-cleavage turned out to be 1.

Take U46C U69G: the self-cleavage is 1.05.

U46C U69C: the self-cleavage amounted to 1.06.

Consider U46C U69A, for which the self-cleavage was found to be 0.997.

As to U46C A59U, the self-cleavage came out at 0.847.

In the case of U46C A59G, the self-cleavage came out at 1.03.

Consider U46A A52C, for which the self-cleavage turned out to be 1.01.

For U46A G56A, the self-cleavage was found to be 0.997.

As to C45G A52C, the self-cleavage was determined as 0.981.

Regarding G47A, the self-cleavage was found to be 1.

On to U46C U53G, for which the self-cleavage was determined as 0.872.

U46G G68C: the self-cleavage was 1.04.

As for U46G G68U, the self-cleavage came to 0.971.

With U46A U64G, the self-cleavage worked out at 0.964.

U46A U64A: the self-cleavage came out at 0.955.

For U46C G65A, the self-cleavage came to 0.893.

For U46C G65C, the self-cleavage was found to be 0.615.

For C45A U62C, the self-cleavage is 0.85.

Regarding C45A U62G, the self-cleavage turned out to be 0.832.

With C45A U62A, the self-cleavage is 0.846.

In the case of C45A A59U, the self-cleavage was found to be 0.793.

On to C45A A59C, for which the self-cleavage came out at 0.613.

For U46G C57U, the self-cleavage stood at 0.391.

Regarding U46G C57G, the self-cleavage was found to be 0.303.

As to U46G C57A, the self-cleavage amounted to 0.354.

Take U44G U55C: the self-cleavage is 0.512.

For the variant C45A U67A, the self-cleavage is 0.951.

In the case of C45A U67G, the self-cleavage amounted to 1.01.

As for C45A U67C, the self-cleavage is 0.98.

For G47A A51U, the self-cleavage turned out to be 0.953.

With G47A A51G, the self-cleavage is 1.02.

Consider C45A U46C, for which the self-cleavage was 1.

For C45A U46G, the self-cleavage is 0.917.

Regarding C45A U46A, the self-cleavage came to 1.01.

Take U46G C63U: the self-cleavage came to 1.03.

For U46G C63A, the self-cleavage stood at 0.869.

On to U46G G50U, for which the self-cleavage turned out to be 0.962.

On to U46G G50A, for which the self-cleavage worked out at 0.981.

Turning to U46G A60G, the self-cleavage was 0.952.

On to U46G A60C, for which the self-cleavage was 0.413.

As to U46G A60U, the self-cleavage was found to be 0.413.

For C45A C54U, the self-cleavage came to 0.926.

C45A C54G: the self-cleavage was 0.562.

For the variant G47A G58C, the self-cleavage turned out to be 0.951.

With G47A G58A, the self-cleavage turned out to be 0.96.

For the variant U46C U62G, the self-cleavage worked out at 0.916.

For the variant U46C U62A, the self-cleavage came out at 0.943.

Take U46C U62C: the self-cleavage amounted to 0.895.

For C45U G47U, the self-cleavage worked out at 1.02.

In the case of C45U G47A, the self-cleavage was 1.03.

For the variant U46G U64C, the self-cleavage is 0.927.

Consider U46G U64A, for which the self-cleavage is 0.916.

With U46G U64G, the self-cleavage came to 0.885.

As to C45A G68A, the self-cleavage stood at 1.02.

C45A G68C: the self-cleavage was found to be 0.965.

C45A G68U: the self-cleavage came out at 0.998.

Consider G47A G50U, for which the self-cleavage was determined as 1.01.

Turning to U46C U64A, the self-cleavage amounted to 0.877.

As for U46C U64C, the self-cleavage was 0.936.

In the case of U46C U64G, the self-cleavage was 0.852.

As to C45G G56A, the self-cleavage was 0.881.

For C45A U61G, the self-cleavage is 0.6.

C45A U61A: the self-cleavage amounted to 0.86.

In the case of U46C C66G, the self-cleavage was 0.762.

U46C C66A: the self-cleavage came out at 0.763.

Consider U46C G68A, for which the self-cleavage was found to be 1.

U46C G68C: the self-cleavage came out at 0.985.

Take U46A U55A: the self-cleavage was 0.964.

Turning to U46A U55C, the self-cleavage amounted to 0.871.

For the variant C45G G65U, the self-cleavage was 0.832.

Turning to C45G G65A, the self-cleavage was determined as 0.87.

Regarding C45A G65C, the self-cleavage came out at 0.533.

For C45A G65U, the self-cleavage worked out at 0.729.

Turning to C45A A52U, the self-cleavage turned out to be 0.919.

For the variant C45A C63A, the self-cleavage came out at 0.817.

For U46G U53G, the self-cleavage came to 0.918.

Turning to U46G U53C, the self-cleavage came to 0.978.

U46G U53A: the self-cleavage was 1.01.

Take U46G A51C: the self-cleavage is 0.949.

As for U46G A51U, the self-cleavage is 1.

Consider U46G A51G, for which the self-cleavage was found to be 0.618.

In the case of G47A G56U, the self-cleavage stood at 1.01.

G47A G56A: the self-cleavage is 1.

Consider U46C G50C, for which the self-cleavage is 1.04.

Regarding U46C G50A, the self-cleavage turned out to be 0.974.

As for U44G G56U, the self-cleavage amounted to 0.666.

Consider U46G C54G, for which the self-cleavage came out at 0.907.

Turning to G47A C66G, the self-cleavage stood at 0.953.

On to G47A C66U, for which the self-cleavage worked out at 0.959.

Consider U44G U61C, for which the self-cleavage was 0.649.

For U44G U61G, the self-cleavage turned out to be 0.82.

For the variant C45U G68U, the self-cleavage is 1.01.

For C45U G68C, the self-cleavage came out at 1.

For the variant C45U G65C, the self-cleavage was 0.719.
